Test results from patent US20160340659A1 (YISSUM RESEARCH AND DEVELOPMENT COMPANY OF THE HEBREW …, published 2016).
One block for each binder: values may come before it. Where no end group is shown, it is not given here.

Columns and labels:
[1] = molecular target: T1, actin (Example II solid-phase assay and BIAcore; source not stated) (Oryctolagus cuniculus (Rabbit), UniProt P68135 3-377); test: not given; presumably the solid-phase actin binding assay of the 29 peptides
[2] = molecular target: T1, actin (Example II solid-phase assay and …); test: SPR, BIAcore 3000, actin amine-coupled to CM5 chip; column heads taken as printed
Experimental: (§1) SPR was performed on a BIAcore 3000 instrument (BIAcore, Uppsala, Sweden). Actin was diluted in 100 mM CH3COONa pH 4.6 to a final concentration of 20 μg/ml (200 μl total) resulting in ˜1 ng immobilized actin on a CM5 BIAcore sensor chip (GE Healthcare Bio-Sciences AB) using the standard BIAcore amine coupling chemistry protocol. The CM5 chip allows four separate flow cells to be operated in the BIAcore 3000 instrument used in these experiments. Coupling is achieved by activating the surface of the sensor chips with equal volumes of 50 mM N-hydroxysuccimide (NHS)/200 mM Nethyl-N-(3-[…])-carboiimide (EDC) (BIAcore, AB, Uppsala, Sweden) to form activated carboxyl groups. An actin solution (15 μg/ml) was run over the chip for 5 min at a rate of 10 μl/min, allowing the amine groups on the protein to react with the activated esters. In the final stage of immobilization, the surface was blocked by 1M ethanol amine, pH 8.0. […] Injections were performed simultaneously over all four channels and blank surface (a plain dextran matrix, channel 1) was used as control. The net signal was obtained by subtracting the blank signal from the signal of the immobilized surface. The association phase for protein or peptides binding to actin was followed for 4 min, and dissociation phases were monitored for 3 min. Surface regeneration between consecutive binding cycles included a 1 min injection of 1 mM NaOH. The response was monitored as a function of time (sensorgram) at 25° C. Multi-concentration data were globally fit using BIA evaluation 3.2 software.

[3] = molecular target: T1, actin (Example II solid-phase assay and …); test: solid-phase actin binding assay: 500 ng actin coated per well, protein in 1:2 dilutions from 500 ng/well, rabbit anti-trT2-49 and goat anti-rabbit IgG-HRP, A655
Experimental: (§2) 96-well plates (MaxiSorp® flat-bottom 96-well plate, Fisher Scientific Inc., Fair Lawn, N.J.) were coated with 500 ng actin in 100 μl carbonate-bicarbonate buffer (pH 9.5) for 1 h at 37° C. The plate was washed once with TBS and then blocked with 3% BSA in 200 μl TBS buffer at 37° C., for 1 h. […] The wells were washed three times with TBST and then incubated with 100 μl goat anti-rabbit IgG-HRP (Jackson ImmunoResearch, West Grove, Pa.) diluted 1:10,000 in TBS, for 1 h at 37° C. Wells were then washed twice with TBST, and once with TBS before 100 μl substrate (1-step Ultra TMB-ELISA, Pierce, Fisher Scientific Inc.) were added. Absorbance at 655 nm was measured 10 min thereafter using a Power Wave 200 Microplate Scanning Spectrophotometer (Bio-Tek Instrument, Winooski, Vt.). Affinity was evaluated by double reciprocal plotting.
To further evaluate the strength of this interaction BIAcore analysis was performed in order to quantify and understand the kinetics of the interaction between these two molecules.

[4] = molecular target: T1, actin (Example II solid-phase assay and …); test: SPR, BIAcore 3000, actin amine-coupled to CM5 chip
Experimental: as §1

[5] = molecular target: T1, actin (Example II solid-phase assay and …); test: solid-phase actin binding assay: 500 ng actin coated per well, protein in 1:2 dilutions from 500 ng/well, rabbit anti-trT2-49 and goat anti-rabbit IgG-HRP, A655; remark: listed apart in the source
Experimental: as §2
(§3) For further insight on the actin binding site within the hRNASET2 protein sequence 29 candidate peptides were tested for their ability to bind actin.

[6] = molecular target: T1, actin (Example II solid-phase assay and …); test: as above; remark: listed apart in the source
Experimental: as §2, §3

[7] = molecular target: T1, actin (Example II solid-phase assay and …); test: solid-phase actin binding assay: 500 ng actin coated per well, peptide in 1:2 dilutions from 500 ng/well, rabbit anti-trT2-49 and goat anti-rabbit IgG-HRP, A655
Experimental: as §2, §3

[8] = molecular target: T1, actin (Example II solid-phase assay and …); test: solid-phase actin binding assay (ELISA, immobilized actin), double reciprocal plot
Experimental: as §2, §3

binding result [1]: no binding
Binder: KKYFGRSLELYRELDL (also called K108-L123 (16 aa)) [peptide K108-L123]

Kd [2]: 7.72 µM
koff [2]: 0.0132 s⁻¹
EC50 (read off the curve) [3]: ~30 ng/100ul
kon [4]: 1710 M⁻¹ s⁻¹
EC50 (read off the curve) [5]: ~30 ng/100ul
EC50 (read off the curve) [6]: ~30 ng/100ul
B1: truncated RNASET2 polypeptide trT2-49 (other)
chain: EGCNRSWPFNLEEIKDLLPEMRAYWPDVIHSFPNRSRFWKHEWEKHGTCAAQVDALNSQKKYFGRSLELYRELDLNSVLLKLGIKPSINYYQVADFKDALARVYGVIPKIQCLPPSQDEEVQTIGQIELCLTKQDQQLQNCTEPGEQPSPKQEVWLANGAAESRGLRVCEDGPVFYPPPKKTKH
notes: Described as amino acids 49-232 of full length, native RNASET2; also called truncated T2 polypeptide

Kd [2]: 14.2 µM
koff [2]: 0.0458 s⁻¹
kon [4]: 3320 M⁻¹ s⁻¹
B2: peptide K108-K133 (peptide)
peptide: KKYFGRSLELYRELDLNSVLLKLGIK
modifications: not fully specified
notes: Synthetic 26 aa peptide of human RNASET2 (helix 5 and 6), tested free in solution in ELISA and SPR; also called 22B; T2 peptide

EC50 (read off the curve) [7]: ~20 ng/100ul
Kd [2]: 0.00322 µM
koff [2]: 3.04 s⁻¹
Kd [8]: 0.068 µM
B3: peptide A103-Q159 (peptide)
peptide: ALNSQKKYFGRSLELYRELDLNSVLLKLGIKPSINYYQVADFKDALARVYGVIPKIQ
notes: Synthetic peptide of human RNASET2, tested free in solution; also called 22A

Kd [2]: 19.4 µM
koff [2]: 0.00969 s⁻¹
EC50 (read off the curve) [3]: ~20 ng/100ul
kon [4]: 500 M⁻¹ s⁻¹
B4: trT2-49m polypeptide (other)
chain: EGCNRSWPFNLEEIKDLLPEMRAYWPDVIHSFPNRSRFWKHEWEKHGTCAAQVDALNSQKKYFGRSLELYRADFKDALARVYGVIPKIQCLPPSQDEEVQTIGQIELCLTKQDQQLQNCTEPGEQPSPKQEVWLANGAAESRGLRVCEDGPVFYPPPKKTKH
